Experimental data as given in US20250281653A1, “METHODS FOR TREATING PROSTATE CANCER WITH RADIOPHARMACEUTICALS” (ARTBIO, Inc., priority 2024, published 2025).
Values joined by “and” are separate entries in the source; they are usually repeats but may differ in a detail not shown here. Identical values can stand only once.

Legend:
[1] = Baseline F18-PSMA-PET/CT: normal tissue evaluation at screening; type: in vivo, human; conditions: individual participants
Procedure: Participants underwent a standard of care diagnostic ^18F-PSMA-PET/CT at baseline (i,e, within six weeks prior to administration of ^212Pb-Compound 1).
PSMA-PET/CT was conducted using the radiotracer ^18F-PSMA-1007: dose 2.5 MBq/kg (minimum 200 MBq, maximum 300 MBq) with PET acquisition performed approximately 120 minutes post-injection.
Each patient received a baseline PSMA-PET/CT evaluation utilizing an F18-PSMA-PET tracer during the screening period (i.e. prior to ^212Pb-Compound 1 administration).
The pattern of PSMA-PET CT tracer uptake in normal organs is within expectations in each case; with notable uptake in the salivary glands (SUVmax range 20.06-30.7), kidneys (SUVmax range 18.7-35.2) and liver (SUVmax range 14.5-25.5).

[2] = in vivo; cited from earlier work
[3] = design: species or system human; conditions: in vivo
Procedure: The sample size was three participants.
Study drug administration: a single injection of 10 MBq for ^212Pb-Compound 1 was administered for each participant. Administration was by slow bolus IV injection via a 3-way adapter coupled to a conventional isotonic saline solution. • The timepoint of injection of ^212Pb-Compound 1 was defined as Day 0, 0 hours. Imaging, whole-body probe and blood assessments of clearance were performed at the following timepoints: • Gamma camera imaging (both planar and SPECT/CT) was scheduled 1-3 hours and 16-24 hours post injection. • Clearance was assessed with blood sampling and whole-body probe measurements at the following timepoints: 15 min after dose (+/−15 min window), 1 h after dose (+1 h window), 4 h after dose (+2 h window), 16 h after dose (+8 h window). Full blood and plasma were measured separately to investigate ligand in vivo stability. Follow-up: Patients were followed-up for safety and tolerability for 28 days post-administration of ^212Pb-Compound 1, with visits on Day 14 and Day 28. Adverse events were reported per CTCAE v5 from time of informed consent until end of follow-up. Patients were followed-up for efficacy biomarkers (PSA, ALP) for 28 days post-administration of ^212Pb-Compound 1.
All 3 patients consented and administered ^212Pb-Compound 1 subsequently completed the planned safety follow up period (no withdrawals from the clinical trial).

[4] = design: species or system human; conditions: in vivo; remark: listed apart in the source
Procedure: (§1) Study drug administration: a single injection of 10 MBq for ^212Pb-Compound 1 was administered for each participant. Administration was by slow bolus IV injection via a 3-way adapter coupled to a conventional isotonic saline solution. • The timepoint of injection of ^212Pb-Compound 1 was defined as Day 0, 0 hours. […] Full blood and plasma were measured separately to investigate ligand in vivo stability. […]
(§2) • Non-invasive gamma camera imaging with both planar gamma imaging (whole body scintigraphy) and SPECT/CT was performed at 2 timepoints following injection of ^212Pb-Compound 1: • 1-3 hours and 16-24 hours • The planar gamma camera imaging was acquired immediately before the SEPCT/CT imaging • Performed on a Siemens Symbia Intevo Bold hybrid scanner using a medium energy low penetration (MELP) or high energy (HE) collimator. • The same scanner was used for all acquisitions of all patients in the study. • Scanner room background radiation was measured 0.5 m from the SPECT/CT scanner table, over a time period of one minute, before the participant entered the scanner room. […]

[5] = design: species or system human; conditions: in vivo; remark: listed apart in the source
Procedure: as §1, §2

**Q.** Which results are given for `O=C(O)CC[C@H](NC(=O)N[C@@H](CCCCNC(=O)[C@H](Cc1ccc2ccccc2c1)NC(=O)c1ccc(CNC(=O)[C@H](CCC(=O)O)NC(=O)[C@H](CCC(=O)O)NC(=O)c2ccc([18F])nc2)cc1)C(=O)O)C(=O)O` [Compound F18-PSMA-PET]?
**A.** SUV max, Bladder, including contents [1]: 8.3 and 2.8 and 3; SUV max, Blood pool [1]: 1.2 and 0.8 and 1.3; SUV max, Bone Marrow [1]: 1.8 and 1.3 and 1; SUV max, Kidneys [1]: 35.2 and 26.8 and 18.7; SUV max, Liver [1]: 14.5 and 25.5 and 14.8; SUV max, Salivary gland [1]: 30.7 (2×) and 20.6; SUV max, Spleen [1]: 16.2 and 7.2 and 15.3; SUV mean, Bladder, including contents [1]: 6.2 and 2.3 (2×); SUV mean, Blood pool [1]: 0.7 and 0.6 and 1.1; SUV mean, Bone Marrow [1]: 1.3 and 0.9 and 0.7; SUV mean, Kidneys [1]: 19.2 and 16.1 and 11.4; SUV mean, Liver [1]: 11.3 and 21.8 and 12.5; SUV mean, Salivary gland [1]: 18.5 and 13 and 19.8; SUV mean, Spleen [1]: 12.6 and 6.1 and 13.7; SUV max, Kidneys ([1]; listed as PSMA-PET CT tracer): 18.7 to 35.2; SUV max, Liver ([1]; listed as PSMA-PET CT tracer): 14.5 to 25.5

**Q.** For `O=C([O-])CN1CCN(CC(=O)[O-])CCN(CC(=O)NCC2CCC(C(=O)N[C@@H](Cc3ccc4ccccc4c3)C(=O)NCCCC[C@H](NC(=O)N[C@@H](CCC(=O)O)C(=O)O)C(=O)O)CC2)CCN(CC(=O)[O-])CC1.[177Lu+3]` (stereo partly shown) [^177Lu-PSMA-617, lutetium Lu 177 vipivotide tetraxetan], which “Dry mouth (i.e., xerostomia), proportion of population” value [2] is on record?
**A.** 38.8%

**Q.** What does the source list for `NC(=O)CN1CCN(CC(N)=O)CCN(CC(N)=O)C(Cc2ccc(NC(=S)NC[C@H]3CC[C@H](C(=O)N[C@@H](Cc4ccc5ccccc5c4)C(=O)NCCCC[C@H](NC(=O)N[C@@H](CCC(=O)O)C(=O)O)C(=O)O)CC3)cc2)CN(CC(N)=O)CC1` (stereo partly shown) [^212Pb-Compound 1, metal not drawn]?
**A.** Adverse reactions, SAEs, SUSARs or deaths [3]: No adverse reactions, serious adverse events (SAEs), suspected unexpected serious adverse events (SUSARs) or deaths were reported; CTCAE grade of the TEAE abdominal pain [3]: 2; Differences or trends in hematology, biochemistry and urinalysis from baseline (incl. ALT, AST, bilirubin, albumin, egfr, creatinine) [3]: no clinically significant differences or trends; ECOG performance score at all visits evaluated [3]: 1; ECOG performance status, change from baseline to end of study visit [3]: remained unchanged; Individual measurements of hematological and clinical chemistry parameters [3]: within their normal reference ranges; Investigator-assessed relationship of all TEAEs to ^212Pb-Compound 1 [3]: probably unrelated; Number (%) of Participants with TEAE: Abdominal pain [3]: 1 (33); Number (%) of Participants with TEAE: Constipation [3]: 1 (33); Number (%) of Participants with TEAE: Erythema [3]: 1 (33); Number (%) of Participants with TEAE: General disorders and administration site conditions [3]: 1 (33); Number (%) of Participants with TEAE: Injury, poisoning and procedural complications [3]: 1 (33); Number (%) of Participants with TEAE: Localized oedema [3]: 1 (33); Number (%) of Participants with TEAE: Skin and subcutaneous tissue disorders [3]: 1 (33); Number (%) of Participants with TEAE: Tooth fracture [3]: 1 (33); Number (%) of Participants with TEAE: Vomiting [3]: 1 (33); Performance status (ECOG) [3]: 1; Risk of xerostomia inferred from absent salivary gland uptake [3]: lower risk of xerostomia; Participants with ^212Pb-Compound 1 uptake by the liver [4]: one participant at the 1 hr time point; ^212Pb-Compound 1 uptake in retrocaval lymph node metastasis (most PSMA-avid lesion) [5]: uptake at the 1 hour time point for one lesion
